Patent US8026218 (UNIVERSITY OF ARIZONA, dated 2011)
Where two headings read alike, the source gives them in different places. Square brackets hold non-standard residues; d marks the D form. Ends that are not written are not given here. * marks the point of attachment. O‑Bzl(CF3)2 = C-terminal bis(trifluoromethyl)benzyl ester; OBzl(3,5-(CF3)2) = FC(F)(F)c1cc(CO*)cc(C(F)(F)F)c1; Phe(4-F) = N[C@@H](Cc1ccc(F)cc1)C(=O)O; Dmt = Cc1cc(O)cc(C)c1C[C@H](N)C(=O)O; NHBn = c1ccc(CN*)cc1

What was measured:
[1] = biological target: T1, µ opioid receptor of the guinea pig isolated ileum (guinea pig, UniProt P97266 1-98); test: cell-based or functional assay
T1 sequence (P97266 whole entry): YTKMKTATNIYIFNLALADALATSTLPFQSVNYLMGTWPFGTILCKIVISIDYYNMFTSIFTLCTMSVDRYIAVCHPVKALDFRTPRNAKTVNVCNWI

[2] = biological target: T2, guinea pig NK1 receptor (guinea pig, UniProt P30547 1-407); test: cell-based or functional assay
T2 sequence (P30547 whole entry): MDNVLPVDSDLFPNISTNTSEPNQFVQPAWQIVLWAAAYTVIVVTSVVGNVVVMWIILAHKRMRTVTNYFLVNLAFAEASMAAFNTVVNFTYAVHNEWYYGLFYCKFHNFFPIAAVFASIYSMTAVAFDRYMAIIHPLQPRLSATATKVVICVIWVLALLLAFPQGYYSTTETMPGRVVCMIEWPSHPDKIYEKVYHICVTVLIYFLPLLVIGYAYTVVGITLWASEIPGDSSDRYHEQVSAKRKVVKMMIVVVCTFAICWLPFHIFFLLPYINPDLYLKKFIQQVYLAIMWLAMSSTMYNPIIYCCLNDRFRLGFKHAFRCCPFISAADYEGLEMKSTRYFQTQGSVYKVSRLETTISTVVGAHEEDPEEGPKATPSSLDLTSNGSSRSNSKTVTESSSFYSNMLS

[3] = biological target: T3, human δ opioid receptor (human, UniProt P41143 1-372); test: competition vs [3H]DPDPE, hDOR cell membranes
T3 construct: whole, on cells; membrane preparations of the transfected cells were used; also called hDOR; DOR
T3 sequence (P41143 whole entry, stated change not applied): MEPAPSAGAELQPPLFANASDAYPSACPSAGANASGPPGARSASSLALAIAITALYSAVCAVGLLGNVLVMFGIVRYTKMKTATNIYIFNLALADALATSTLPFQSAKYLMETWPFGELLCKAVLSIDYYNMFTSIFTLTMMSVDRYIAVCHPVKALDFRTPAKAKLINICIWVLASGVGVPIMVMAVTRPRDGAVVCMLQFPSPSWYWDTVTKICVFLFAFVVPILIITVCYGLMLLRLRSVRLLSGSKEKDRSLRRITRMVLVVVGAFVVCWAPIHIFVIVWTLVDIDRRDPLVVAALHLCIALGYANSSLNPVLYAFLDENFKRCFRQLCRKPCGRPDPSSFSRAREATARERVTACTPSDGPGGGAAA

[4] = biological target: T1, µ opioid receptor of the guinea pig …; test: cell-based or functional assay; remark: listed apart in the source
[5] = biological target: T2, guinea pig NK1 receptor; test: cell-based or functional assay; remark: listed apart in the source
[6] = biological target: T3, human δ opioid receptor; test: competition vs [3H]DPDPE, hDOR cell membranes; remark: listed apart in the source
[7] = biological target: T4, human NK1 receptor (human, UniProt P25103 1-407); test: competition vs [3H]Substance P, hNK1 CHO cell membranes
T4 construct: whole, on cells; membrane preparations of the transfected cells were used; also called hNK1; human neurokinin-1 receptor
T4 sequence (P25103 whole entry): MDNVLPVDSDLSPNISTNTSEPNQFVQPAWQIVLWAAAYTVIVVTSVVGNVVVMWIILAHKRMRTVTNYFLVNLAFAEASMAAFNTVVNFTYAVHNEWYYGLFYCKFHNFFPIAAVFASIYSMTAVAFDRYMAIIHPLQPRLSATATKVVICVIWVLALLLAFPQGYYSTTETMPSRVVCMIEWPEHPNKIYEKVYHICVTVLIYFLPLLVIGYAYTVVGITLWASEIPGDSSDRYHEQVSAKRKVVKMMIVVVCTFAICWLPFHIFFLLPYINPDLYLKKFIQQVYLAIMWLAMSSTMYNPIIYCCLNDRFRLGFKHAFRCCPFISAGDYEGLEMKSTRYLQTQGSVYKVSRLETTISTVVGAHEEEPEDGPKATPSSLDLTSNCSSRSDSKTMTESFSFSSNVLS

[8] = biological target: T4, human NK1 receptor; test: as above; remark: listed apart in the source
[9] = biological target: T5, rat NK1 receptor (rat, UniProt P14600 1-407); test: competition vs [3H]Substance P, rNK1 CHO cell membranes
T5 construct: whole, on cells; membrane preparations of the transfected cells were used; also called rNK1; rNK-1
T5 sequence (P14600 whole entry): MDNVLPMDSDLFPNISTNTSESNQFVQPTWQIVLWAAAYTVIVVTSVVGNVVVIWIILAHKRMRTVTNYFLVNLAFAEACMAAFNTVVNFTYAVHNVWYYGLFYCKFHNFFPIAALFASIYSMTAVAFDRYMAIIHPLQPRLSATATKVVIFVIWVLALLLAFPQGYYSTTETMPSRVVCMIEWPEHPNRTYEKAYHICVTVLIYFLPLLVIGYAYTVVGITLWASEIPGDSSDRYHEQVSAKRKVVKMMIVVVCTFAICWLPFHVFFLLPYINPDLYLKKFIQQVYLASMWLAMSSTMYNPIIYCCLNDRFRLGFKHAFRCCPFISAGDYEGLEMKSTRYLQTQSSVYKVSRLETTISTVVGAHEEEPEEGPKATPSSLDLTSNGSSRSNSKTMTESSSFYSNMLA

[10] = biological target: T6, µ opioid receptor of the guinea pig isolated ileum (guinea pig, UniProt P97266 1-98); test: cell-based or functional assay; remark: listed apart in the source
T6 sequence (P97266 whole entry): as the sequence (P97266 whole entry) above

[11] = biological target: T7, rat NK1 receptor (rat, UniProt P14600 1-407); test: competition vs [3H]substance P, membranes of rNK1-transfected CHO cells
T7 construct: whole, on cells; Assayed as membrane preparations of transfected CHO cells; also called rNK1; rNK-1
T7 sequence (P14600 whole entry): as the sequence (P14600 whole entry) above

[12] = biological target: T8, rat µ opioid receptor (rat, UniProt P33535 1-398); test: cell-based or functional assay
T8 sequence (P33535 whole entry): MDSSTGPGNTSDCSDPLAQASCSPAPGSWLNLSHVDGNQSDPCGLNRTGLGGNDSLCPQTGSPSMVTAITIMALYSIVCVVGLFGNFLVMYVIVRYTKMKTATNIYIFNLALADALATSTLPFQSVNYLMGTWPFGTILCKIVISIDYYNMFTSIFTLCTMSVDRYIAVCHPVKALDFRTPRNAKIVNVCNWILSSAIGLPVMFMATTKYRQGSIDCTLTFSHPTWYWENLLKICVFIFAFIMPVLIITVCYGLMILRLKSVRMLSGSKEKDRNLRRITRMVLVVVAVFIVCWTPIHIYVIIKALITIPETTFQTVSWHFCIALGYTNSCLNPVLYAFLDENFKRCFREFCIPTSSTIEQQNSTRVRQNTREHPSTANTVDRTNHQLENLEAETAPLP

[13] = biological target: T9, human δ opioid receptor (human, UniProt P41143 1-372); test: cell-based or functional assay
T9 sequence (P41143 whole entry, stated change not applied): as the sequence (P41143 whole entry, stated change not applied) above

[14] = biological target: T8, rat µ opioid receptor; test: cell-based or functional assay; remark: listed apart in the source
[15] = biological target: T9, human δ opioid receptor; test: cell-based or functional assay; remark: listed apart in the source
[16] = biological target: T9, human δ opioid receptor; test: competition vs [3H]DPDPE, membranes of hDOR-transfected HN9.10 cells
[17] = biological target: T9, human δ opioid receptor; test: as above; remark: listed apart in the source
[18] = biological target: T7, rat NK1 receptor; test: competition vs [3H]substance P, membranes of rNK1-transfected CHO cells; remark: listed apart in the source
[19] = biological target: guinea pig NK1 receptor (guinea pig, UniProt P30547 1-407); test: cell-based or functional assay; remark: listed apart in the source
Target sequence in this assay (P30547 whole entry): as the sequence (P30547 whole entry) above

[20] = biological target: µ opioid receptor of the guinea pig isolated ileum (guinea pig); test: cell-based or functional assay
[21] = biological target: T9, human δ opioid receptor; test: ratio of Ki at rMOR to Ki at hDOR
[22] = biological target: T8, rat µ opioid receptor; test: competition vs [3H]DAMGO, membranes of rMOR-transfected HN9.10 cells
[23] = biological target: T6, µ opioid receptor of the guinea pig …; test: cell-based or functional assay; remark: listed apart in the source

B1: TyrDAlaGlyPheMetProLeuTrpNHBn (peptide)
peptide: Y[dA]GFMPLW-NHBn
notes: also called TY025
[1]
  GPI/LMMP IC50: 61.1 nM
[2]
  GPI/LMMP Substance P antagonist Ke: 9.9 nM
[3]
  Ki: 0.44 nM
[4]
  GPI (µ) IC50: 61 nM
[5]
  GPI Substance P antagonist Ke: 9.9 nM

B2: DmtDAlaGlyPheNleProLeuTrpNHBn-2,4-(OMe)2 (peptide)
peptide: YAGFXPLW
modifications: not fully specified; Dmt at 1 (written Y); D-Ala at 2; Nle at 5 (written X); C-terminal dimethoxybenzyl amide (NHBn-2,4-(OMe)2 in Table 39, NH-3,5-Bn(OMe)2 in Table 31)
notes: also called TY054
[6]
  Ki: 0.15 nM
[7]
  Ki: 0.95 nM

B3: DmtDAlaGlyPheMetProLeuTrpOBn(CF3)2 (peptide)
peptide: [Dmt][dA]GFMPLW-{OBzl(3,5-(CF3)2)}
notes: also called TY033
[1]
  GPI/LMMP IC50: 100 nM
[2]
  GPI/LMMP Substance P antagonist Ke: 24.5 nM
[8]
  Ki: 1.2 nM
[3]
  Ki: 0.22 nM
[9]
  Ki: 0.96 nM

B4: Tyr-D-Ala-Gly-pFPhe-O-3′,5′(CF3)2-Bzl (NP62) (peptide)
peptide: Y[dA]G[Phe(4-F)]-{OBzl(3,5-(CF3)2)}
[10]
  GPI µ-agonist IC50: 208 nM

B5: H-Tyr-D-Ala-Gly-Phe-Met-Pro-Leu-Trp-O-3,5-Bzl(CF3)2 (peptide)
peptide: H-Y[dA]GFMPLW-{OBzl(3,5-(CF3)2)}
modifications: also: TFA salt
notes: TFA salt; also called TY005; TY5
[11]
  Ki: 0.29 nM
  LogIC50: -9
[12]
  [35S]GTP-γ-S binding Emax: 45%
[13]
  [35S]GTP-γ-S binding EC50: 2.9 nM
  [35S]GTP-γ-S binding Emax: 51%
  [35S]GTP-γ-S binding LogEC50: -8.54
[14]
  [35S]GTPγS binding Emax: 46%
[15]
  [35S]GTPγS binding EC50: 2.9 nM
  [35S]GTPγS binding Emax: 48%
  [35S]GTPγS binding LogEC50: -8.5
[16]
  Ki: 2.8 nM
  LogIC50: -8.22
[17]
  Ki: 2.8 nM
[18]
  IC50: 6.4 nM
  LogIC50: -8.22
[19]
  Substance P GPI antagonist Ke: 24.7 nM
[20]
  GPI (µ) opioid agonist IC50: 359 nM

B6: H-Tyr-D-Ala-Gly-Phe-D-Phe-Pro-Leu-Trp-O-3,5-Bzl(CF3)2 (peptide)
peptide: H-Y[dA]GF[dF]PLW-{OBzl(3,5-(CF3)2)}
modifications: also: TFA salt
notes: TFA salt; also called TY007
[12]
  [35S]GTP-γ-S binding EC50: 345 nM
  [35S]GTP-γ-S binding Emax: 22%
  [35S]GTP-γ-S binding LogEC50: -6.46
[13]
  [35S]GTP-γ-S binding EC50: 16.8 nM
  [35S]GTP-γ-S binding Emax: 26%
  [35S]GTP-γ-S binding LogEC50: -7.78
[21]
  Ki(µ)/Ki(δ): 4.1
[16]
  Ki: 93 nM
  LogIC50: -6.7
[18]
  IC50: 66.7 nM
  LogIC50: -7.22
[19]
  Substance P GPI agonist (A50), contraction relative to KCl: 0 % at 1 µM
  Substance P GPI antagonist Ke: 69.6 nM
[20]
  GPI (µ) opioid agonist, % at 1 µM: 9 % at 1 µM
[22]
  Ki: 381 nM
  LogIC50: -6.09

B7: H-Tyr-D-Ala-Gly-Phe-Gly-Pro-Leu-Trp-O-3,5-Bzl(CF3)2 (peptide)
peptide: H-Y[dA]GFGPLW-{OBzl(3,5-(CF3)2)}
modifications: also: TFA salt
notes: TFA salt; also called TY006
[12]
  [35S]GTP-γ-S binding EC50: 41.7 nM
  [35S]GTP-γ-S binding Emax: 39%
  [35S]GTP-γ-S binding LogEC50: -7.38
[13]
  [35S]GTP-γ-S binding EC50: 50.2 nM
  [35S]GTP-γ-S binding Emax: 35%
  [35S]GTP-γ-S binding LogEC50: -7.3
[21]
  Ki(µ)/Ki(δ): 0.75
[16]
  Ki: 36.1 nM
  LogIC50: -7.11
[18]
  IC50: 15.6 nM
  LogIC50: -7.83
[19]
  Substance P GPI agonist (A50), contraction relative to KCl: 0 % at 1 µM
  Substance P GPI antagonist Ke: 5.4 nM
[20]
  GPI (µ) opioid agonist IC50: 384 nM
[22]
  Ki: 27 nM
  LogIC50: -7.24

B8: Tyr-DAla-Gly-Phe-Leu-Trp-O-Bzl(CF3)2 (NP37) (peptide)
peptide: Y[dA]GFLW-{O‑Bzl(CF3)2}
[23]
  GPI/LMMP µ-agonist IC50: 45.4 nM
